This note sets out measurements from PMC12609908.

Positions count from the first letter of the chain named.

Holding throughout (test): EMSA
Holding throughout (conditions): 50 mM Tris-HCl pH 8.0, 100 mM NaCl, 40% glycerol, 5 mM DTT, 2 mM EDTA, 4 °C 1 h; 10% native PAGE in 0.5x TBE at 4 °C
(Mobility shift assays separate free from complexed probe on a gel.)

In series [1] the target is T1, CutR Q38A Q38A (Mycobacterium sp. strain JC1) (UniProt D5G1X9).
T1 sequence: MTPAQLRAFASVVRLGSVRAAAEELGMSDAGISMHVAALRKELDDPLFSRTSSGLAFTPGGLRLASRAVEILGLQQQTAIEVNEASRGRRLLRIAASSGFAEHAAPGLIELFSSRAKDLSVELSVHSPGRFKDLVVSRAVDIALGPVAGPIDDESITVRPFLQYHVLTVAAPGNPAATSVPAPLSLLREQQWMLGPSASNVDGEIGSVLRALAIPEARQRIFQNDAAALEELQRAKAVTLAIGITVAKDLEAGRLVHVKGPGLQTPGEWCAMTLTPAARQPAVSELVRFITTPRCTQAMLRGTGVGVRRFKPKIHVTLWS

For series [2], the target named is T2, CutR Q5A Q5A (Mycobacterium sp. strain JC1) (UniProt D5G1X9).
T2 sequence: T1 sequence with Q5A, A38Q

Series [3] deals with T3, CutR R19A R19A (Mycobacterium sp. strain JC1) (UniProt D5G1X9).
T3 sequence: T1 sequence with R19A, A38Q

In series [4] the target is T4, CutR R40A R40A (Mycobacterium sp. strain JC1) (UniProt D5G1X9).
T4 sequence: T1 sequence with A38Q, R40A

Series [5] has as its target T5, CutR R7A R7A (Mycobacterium sp. strain JC1) (UniProt D5G1X9).
T5 sequence: T1 sequence with R7A, A38Q

Turning to “ACCCCGAGTTAAGTGATTCCTTAACTCGCTATTGACGCCATCGCGGCGGCAACGGAAACTAGCCACTTCAGCCACGACGTTGTGAGGATGATCACATGCAA (double strand) [IR1 to CRP motif fragment (101 bp)]”, the binding result is on record as “binds” in series [1]; “binds” in series [2]; “binds” in series [3]; “no binding” in series [4]; “binds” in series [5].
